Laboratory results from patent US20250250357A1 (NANJING ZAIMING PHARMACEUTICAL, published 2025).
Positions count from the first letter of the chain named. One block for each binder: values may come before it.

Legend:
[1] = molecular target: T1, human MSLN-R2-his protein (human, UniProt Q13421 391-486); experiment: ELISA on coated antigen, antibody 2 nM
T1 construct: it is put last here; also called human MSLN-R2 protein; hMSLN-R2-his; not shown: His tag
T1 sequence (Q13421 other isoform, or with tags, fused parts or gaps): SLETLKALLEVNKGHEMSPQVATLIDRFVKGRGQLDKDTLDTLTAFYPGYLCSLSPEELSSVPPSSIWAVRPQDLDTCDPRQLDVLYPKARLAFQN

[2] = molecular target: T2, human MSLN-R3-his protein (human, UniProt Q13421 487-598); experiment: ELISA on coated antigen, antibody 2 nM
T2 construct: it is put last here; also called human MSLN-R3 protein; hMSLN-R3-his; not shown: His tag
T2 sequence (Q13421 495-606): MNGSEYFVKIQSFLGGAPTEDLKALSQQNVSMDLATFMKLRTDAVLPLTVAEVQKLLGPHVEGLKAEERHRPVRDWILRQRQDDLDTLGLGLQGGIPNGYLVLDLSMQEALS

[3] = molecular target: T1, human MSLN-R2-his protein; experiment: ELISA on coated antigen, antibody 20 nM
Experimental: (§1) The plate was sealed with a plastic film and incubated at 4° C. overnight. The next day, the plate was washed twice with PBST, and a blocking buffer [PBS+2% (w/w) BSA] was added for blocking at room temperature for 2 h. The blocking buffer was discarded, and a chimeric antibody or negative control antibody serially diluted from 100 nM was added at 50 μL/well. After incubation at 37° C. for 2 h, the plate was washed 3 times with PBST. […] After incubation at 37° C. for 2 h, the plate was washed 5 times with PBST. A TMB substrate was added at 50 μL/well for incubation at room temperature for 5-10 min, and then a stop solution (1.0 N HCl) was added at 50 μL/well.

[4] = molecular target: T2, human MSLN-R3-his protein; experiment: ELISA on coated antigen, antibody 20 nM
[5] = molecular target: T1, human MSLN-R2-his protein; experiment: ELISA on coated antigen, antibody 0.2 nM
Experimental: as §1

[6] = molecular target: T1, human MSLN-R2-his protein; experiment: ELISA on coated antigen, antibody 200 nM
Experimental: as §1

[7] = molecular target: T2, human MSLN-R3-his protein; experiment: ELISA on coated antigen, antibody 0.2 nM
Experimental: as §1

[8] = molecular target: T2, human MSLN-R3-his protein; experiment: ELISA on coated antigen, antibody 200 nM
Experimental: as §1

[9] = molecular target: T1, human MSLN-R2-his protein; experiment: ELISA on coated antigen, antibody 0.02 nM
Experimental: as §1

[10] = molecular target: T2, human MSLN-R3-his protein; experiment: ELISA on coated antigen, antibody 0.02 nM
[11] = molecular target: T1, human MSLN-R2-his protein; experiment: ELISA on coated antigen, antibody 0.002 nM
Experimental: as §1

[12] = molecular target: T2, human MSLN-R3-his protein; experiment: ELISA on coated antigen, antibody 0.002 nM
Experimental: as §1

[13] = molecular target: T1, human MSLN-R2-his protein; experiment: ELISA on coated antigen, antibody 0.0002 nM
[14] = molecular target: T2, human MSLN-R3-his protein; experiment: ELISA on coated antigen, antibody 0.0002 nM
Experimental: as §1

[15] = molecular target: T1, human MSLN-R2-his protein; experiment: ELISA on coated antigen, no antibody (blank, column 'none')
Experimental: as §1

[16] = molecular target: T2, human MSLN-R3-his protein; experiment: as above
[17] = molecular target: T3, human MSLN-R1-his protein (human, UniProt Q13421 296-390); experiment: ELISA on coated MSLN-R1; antibody 1 nM
T3 construct: Region 1 of human mesothelin, made in HEK293E cells, His-tagged; also called human MSLN-R1 protein; hMSLN-R1-his; not shown: His tag
T3 chain: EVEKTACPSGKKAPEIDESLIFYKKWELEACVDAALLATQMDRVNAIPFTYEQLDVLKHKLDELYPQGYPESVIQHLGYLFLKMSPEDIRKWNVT

[18] = molecular target: T4, human MSLN-R2-his protein (human, UniProt Q13421 391-486); experiment: ELISA on coated MSLN-R2; antibody 1 nM
T4 construct: Region 2 of human mesothelin, made in HEK293E cells, His-tagged; also called human MSLN-R2 protein; hMSLN-R2-his; not shown: His tag
T4 sequence (Q13421 other isoform, or with tags, fused parts or gaps): as the sequence (Q13421 other isoform, or with tags, fused parts or gaps) above

[19] = molecular target: T5, human MSLN-R3-his protein (human, UniProt Q13421 487-598); experiment: ELISA on coated MSLN-R3; antibody 1 nM
T5 construct: Region 3 of human mesothelin, made in HEK293E cells, His-tagged; also called human MSLN-R3 protein; hMSLN-R3-his; not shown: His tag
T5 sequence (Q13421 495-606): as the sequence (Q13421 495-606) above

[20] = molecular target: T3, human MSLN-R1-his protein; experiment: ELISA on coated MSLN-R1; antibody 10 nM
Experimental: as §1

[21] = molecular target: T4, human MSLN-R2-his protein; experiment: ELISA on coated MSLN-R2; antibody 10 nM
Experimental: as §1

[22] = molecular target: T5, human MSLN-R3-his protein; experiment: ELISA on coated MSLN-R3; antibody 10 nM
Experimental: as §1

[23] = molecular target: T3, human MSLN-R1-his protein; experiment: ELISA on coated MSLN-R1; antibody 0.1 nM
Experimental: as §1

[24] = molecular target: T3, human MSLN-R1-his protein; experiment: ELISA on coated MSLN-R1; antibody 100 nM
Experimental: as §1

[25] = molecular target: T4, human MSLN-R2-his protein; experiment: ELISA on coated MSLN-R2; antibody 0.1 nM
Experimental: as §1

[26] = molecular target: T4, human MSLN-R2-his protein; experiment: ELISA on coated MSLN-R2; antibody 100 nM
[27] = molecular target: T5, human MSLN-R3-his protein; experiment: ELISA on coated MSLN-R3; antibody 0.1 nM
Experimental: as §1

[28] = molecular target: T5, human MSLN-R3-his protein; experiment: ELISA on coated MSLN-R3; antibody 100 nM
[29] = molecular target: T3, human MSLN-R1-his protein; experiment: ELISA on coated MSLN-R1; antibody 0.01 nM
[30] = molecular target: T4, human MSLN-R2-his protein; experiment: ELISA on coated MSLN-R2; antibody 0.01 nM
Experimental: as §1

[31] = molecular target: T5, human MSLN-R3-his protein; experiment: ELISA on coated MSLN-R3; antibody 0.01 nM
Experimental: as §1

[32] = molecular target: T3, human MSLN-R1-his protein; experiment: ELISA on coated MSLN-R1; antibody 0.001 nM
Experimental: as §1

[33] = molecular target: T4, human MSLN-R2-his protein; experiment: ELISA on coated MSLN-R2; antibody 0.001 nM
Experimental: as §1

[34] = molecular target: T5, human MSLN-R3-his protein; experiment: ELISA on coated MSLN-R3; antibody 0.001 nM
Experimental: as §1

[35] = molecular target: T3, human MSLN-R1-his protein; experiment: ELISA on coated MSLN-R1; antibody 0.0001 nM
Experimental: as §1

[36] = molecular target: T4, human MSLN-R2-his protein; experiment: ELISA on coated MSLN-R2; antibody 0.0001 nM
Experimental: as §1

[37] = molecular target: T5, human MSLN-R3-his protein; experiment: ELISA on coated MSLN-R3; antibody 0.0001 nM
Experimental: as §1

[38] = molecular target: T3, human MSLN-R1-his protein; experiment: ELISA on coated MSLN-R1; no antibody (blank)
Experimental: as §1

[39] = molecular target: T4, human MSLN-R2-his protein; experiment: ELISA on coated MSLN-R2; no antibody (blank)
Experimental: as §1

[40] = molecular target: T5, human MSLN-R3-his protein; experiment: ELISA on coated MSLN-R3; no antibody (blank)

OD450 [1]: 0.05 OD
OD450 [2]: 2.86 OD
OD450 [3]: 0.07 OD
OD450 [4]: 2.81 OD
OD450 [5]: 0.05 OD
OD450 [6]: 0.13 OD
OD450 [7]: 2.64 OD
OD450 [8]: 3.1 OD
OD450 [9]: 0.05 OD
OD450 [10]: 1.55 OD
OD450 [11]: 0.05 OD
OD450 [12]: 0.56 OD
OD450 [13]: 0.05 OD
OD450 [14]: 0.13 OD
OD450 [15]: 0.06 OD
OD450 [16]: 0.08 OD
B1: S009-F7.6.17 (antibody, human IgG1, kappa, V domains shown)
VH: QVQLQQSGAELARPGASVKMSCKASGYTFTTYTMHWVKQRPGQGLEWIGYISPTGDFTKYNQKFKDKATLTTDKSSNTAFMQLSSLTSEDSAVYYCARWNGTVWFAYWGQGTLVTVSA
VL: DIVMTQSQKFMSTSVGDRVTVTCKASQALGTNVAWYQQKPGQSPKVLIYSASYRYSGVPYRFAGGGSGTDFTLTITNVQSEDLAEYFCQQYNNYPLTFGAGTKLELKR
notes: Human-murine chimeric antibody, human IgG1 heavy and kappa light constant regions

OD450 [1]: 0.05 OD
OD450 [2]: 2.41 OD
OD450 [3]: 0.06 OD
OD450 [4]: 2.58 OD
OD450 [5]: 0.05 OD
OD450 [6]: 0.07 OD
OD450 [7]: 1.37 OD
OD450 [8]: 3.12 OD
OD450 [9]: 0.05 OD
OD450 [10]: 0.32 OD
OD450 [11]: 0.05 OD
OD450 [12]: 0.09 OD
OD450 [13]: 0.05 OD
OD450 [14]: 0.06 OD
OD450 [15]: 0.06 OD
OD450 [16]: 0.06 OD
B2: S009-F7.11.11 (antibody, human IgG1, kappa, V domains shown)
VH: EVQLQQSGPELVKPGASVKIPCKASGYTITDYNMDWVKQSRGKSLEWIGDVFPYNGDSIYNQKFEGRATLTVDKYSSTAYMELRGLTSEDTAVYFCARRKTGTGYFDVWGTGTTVTVSS
VL: QLVLTQSPAIMSASPGEKVTLTCSASSSVSSTYLSWYLQKPGSSPKLWIYSTSNLASGVPARFSGSGSGTSYSLTISSMEAEDAASYFCHQWSSYPYTFGGGTKLEIKR
notes: as for B1

OD450 [1]: 0.05 OD
OD450 [2]: 2.48 OD
OD450 [3]: 0.06 OD
OD450 [4]: 2.67 OD
OD450 [5]: 0.05 OD
OD450 [6]: 0.08 OD
OD450 [7]: 1.67 OD
OD450 [8]: 2.96 OD
OD450 [9]: 0.05 OD
OD450 [10]: 0.36 OD
OD450 [11]: 0.05 OD
OD450 [12]: 0.15 OD
OD450 [13]: 0.05 OD
OD450 [14]: 0.06 OD
OD450 [15]: 0.06 OD
OD450 [16]: 0.06 OD
B3: S009-F7.12.13 (antibody, human IgG1, kappa, V domains shown)
VH: EVQLQQSGPELVKPGASVKIPCKASGYTFTDYNMDWVKQSHGKGLEWIGDINPNTDDTIYNQKFNGKATLTVDKSSSTAYMELRSLTSEDTAVYYCSRRLIGTGYFDVWGTGTTVTVSS
VL: B2 VL with L2I, S30I, S35C, L38R, K46E, S94N, E106G, I107M
notes: as for B1

OD450 [17]: 0.04 OD450
OD450 [18]: 0.04 OD450
OD450 [19]: 0.05 OD450
OD450 [20]: 0.04 OD450
OD450 [21]: 0.04 OD450
OD450 [22]: 0.14 OD450
OD450 [23]: 0.04 OD450
OD450 [24]: 0.05 OD450
OD450 [25]: 0.03 OD450
OD450 [26]: 0.05 OD450
OD450 [27]: 0.04 OD450
OD450 [28]: 1.19 OD450
OD450 [29]: 0.04 OD450
OD450 [30]: 0.04 OD450
OD450 [31]: 0.04 OD450
OD450 [32]: 0.04 OD450
OD450 [33]: 0.04 OD450
OD450 [34]: 0.04 OD450
OD450 [35]: 0.04 OD450
OD450 [36]: 0.04 OD450
OD450 [37]: 0.04 OD450
OD450 [38]: 0.03 OD450
OD450 [39]: 0.04 OD450
OD450 [40]: 0.04 OD450
B4: S009-F8-36.12 (antibody, human IgG1, kappa, V domains shown)
VH: EVQLQQSGPELVKPGASVKISCKASGYTFTDYYMNWVKQSHGKSLEWIGDINPNNGGTSYNQKFKGKATLTVDKSSSTAYMELRSLTSEDSAVYYCASWGYGSSSRGYFDYWGQGTTLTVSS
VL: QIVLSQSPAILSASPGEKVTMTCRASSSVSYMHWYQQKPGSSPKPWIYATSNLASGVPARFSGSGSGTSYSLTISRVEAEDAATYYCQQWSSNPWTFGGGTKLEIKR

OD450 [1]: 2.37 OD
OD450 [2]: 0.07 OD
OD450 [3]: 2.38 OD
OD450 [4]: 0.1 OD
OD450 [5]: 2.12 OD
OD450 [6]: 2.74 OD
OD450 [7]: 0.06 OD
OD450 [8]: 0.2 OD
OD450 [9]: 1.22 OD
OD450 [10]: 0.06 OD
OD450 [11]: 0.41 OD
OD450 [12]: 0.06 OD
OD450 [13]: 0.14 OD
OD450 [14]: 0.06 OD
OD450 [15]: 0.06 OD
OD450 [16]: 0.07 OD
B5: S009-F7.2.3 (antibody, human IgG1, kappa, V domains shown)
VH: ELQLVESGGDLVKPGGSLKLSCAASGFTFSSNGMSWLRQTPDKRLEWVATISSGGRYTYYPDSVKGRFTISRDNAKNTLYLQMSSLKSEDTAMYYCARRGIYDYFDCWGQGTTLTVSS
VL: DIQMTQSPASLSISVGETVTITCRASENIHSSLAWYQQKQGKSPQLLVYAATNLADGVPSRFSGSGSGSQYSLKINSLQSEDFGTYYCQHFWGTPWTFGGGTKLDIKR
notes: as for B1
